What all share (assay): purified protein
Series [1] concerns CC(C)=CCC/C(C)=C/COP(=O)(O)OP(=O)(O)O. The following applies: co-substrate 1-hydroxynaphthalene (1), 50 mM Tris-HCl, 10 mM CaCl2, 5% DMSO, 37 °C, 15 min, substrate inhibition at 1.0 mM or higher.
The test system of series [2] is Oc1ccc2c(O)cccc2c1. The settings on record: co-substrate 1 mM DMAPP, 50 mM Tris-HCl, 10 mM CaCl2, 5% DMSO, 37 °C, 15 min.
Series [3] relates to Oc1ccc2cccc(O)c2c1. The following applies: co-substrate 1 mM DMAPP, 50 mM Tris-HCl, 10 mM CaCl2, 5% DMSO, 37 °C, 15 min.

In general, Km refers to the concentration of substrate that gives half-maximal velocity. Broadly, the kcat is the maximal rate divided by the concentration of active sites. As a reminder, the kcat/Km is the turnover number divided by the Michaelis constant.

Take ShPT (Stereum hirsutum FP-91666 SS1): in series [1], the Km was 1010 ± 50 µM, the kcat came to 0.36 ± 0.01 s⁻¹ and the kcat/Km turned out to be 357 M⁻¹ s⁻¹. For the same substance, in series [2], the Km was found to be 660 ± 100 µM, the kcat was 0.13 ± 0.01 s⁻¹ and the kcat/Km is 197 M⁻¹ s⁻¹. In series [3], the Km was found to be 920 ± 10 µM, the kcat amounted to 0.46 ± 0.04 s⁻¹ and the kcat/Km was found to be 511 M⁻¹ s⁻¹.

The values above are taken from paper PMC10344970.
